# Source: patent publication US20180155406A1 (Sanofi, published 2018)
# Numbered stars: 1 amine (or outer) side, 2 acyl side, 3 side chain; on linkers, the order of the positions; unused ones are H or OH. Square brackets hold non-standard residues; d marks the D form. Side chains are listed from the residue outwards. Ends that are not written are not given here. * marks the point of attachment. γGlu = O=C(O)[C@H](CCC(=O)[*:2])N[*:1]; Stearoyl = CCCCCCCCCCCCCCCCCC(=O)*; Palmitoyl = CCCCCCCCCCCCCCCC(=O)*; AEEA = NCCOCCOCC(=O)O; Aib = CC(C)(N)C(=O)O
# T1: human GIP receptor (human, UniProt P48546 22-466)
# T1 sequence (looked up): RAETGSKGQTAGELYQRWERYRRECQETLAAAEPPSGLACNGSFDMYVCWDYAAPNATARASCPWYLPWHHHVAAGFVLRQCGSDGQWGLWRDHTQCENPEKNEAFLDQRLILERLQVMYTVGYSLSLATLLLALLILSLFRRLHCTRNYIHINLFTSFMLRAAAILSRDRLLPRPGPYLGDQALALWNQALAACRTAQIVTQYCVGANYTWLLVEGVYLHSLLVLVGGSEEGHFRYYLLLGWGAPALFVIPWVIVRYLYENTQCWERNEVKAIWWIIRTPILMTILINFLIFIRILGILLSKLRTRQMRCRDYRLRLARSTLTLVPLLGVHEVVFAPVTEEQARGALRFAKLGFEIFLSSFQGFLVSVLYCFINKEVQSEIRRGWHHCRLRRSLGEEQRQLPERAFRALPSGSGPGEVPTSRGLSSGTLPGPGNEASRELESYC
# Key:
# Assay in all cases: cell-based or functional assay
# human GIP receptor = molecular target: T1, human GIP receptor
# human GLP-1 receptor = human GLP-1 receptor (human, UniProt P43220 24-463)
# human glucagon receptor = human glucagon receptor (human, UniProt P47871 26-477)
# human glucagon receptor, sequence (P47871 26-477): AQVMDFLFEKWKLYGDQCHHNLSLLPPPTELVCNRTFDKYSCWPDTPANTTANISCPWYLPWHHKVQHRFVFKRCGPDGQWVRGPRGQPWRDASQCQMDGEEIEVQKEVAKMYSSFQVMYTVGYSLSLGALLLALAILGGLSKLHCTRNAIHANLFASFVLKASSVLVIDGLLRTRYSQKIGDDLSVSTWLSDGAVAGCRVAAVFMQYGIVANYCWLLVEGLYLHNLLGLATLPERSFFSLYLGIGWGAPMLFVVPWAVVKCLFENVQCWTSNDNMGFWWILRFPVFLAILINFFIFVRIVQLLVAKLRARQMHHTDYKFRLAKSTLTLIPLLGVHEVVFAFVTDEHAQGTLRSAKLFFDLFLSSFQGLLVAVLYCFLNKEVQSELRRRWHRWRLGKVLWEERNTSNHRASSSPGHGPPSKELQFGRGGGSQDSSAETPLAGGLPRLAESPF
Binder,EC50 hGIP R (cAMP formation) (human GIP receptor) [pM],EC50 hGLP-1R (cAMP formation) (human GLP-1 receptor) [pM],EC50 hGlucagon R (cAMP formation) (human glucagon receptor) [pM]
H[Aib]HGTFTSDLSKLK([γGlu-Palmitoyl])EEQRQ[Aib]EFIEWLKAGGPPS[Aib]KPPPK-NH2 (N-terminus assumed; SMILES CCCCCCCCCCCCCCCC(=O)N[C@@H](CCC(=O)NCCCC[C@H](NC(=O)[C@H](CC(C)C)NC(=O)[C@H](CCCCN)NC(=O)[C@H](CO)NC(=O)[C@H](CC(C)C)NC(=O)[C@H](CC(=O)O)NC(=O)[C@H](CO)NC(=O)[C@@H](NC(=O)[C@H](Cc1ccccc1)NC(=O)[C@@H](NC(=O)CNC(=O)[C@H](Cc1c[nH]cn1)NC(=O)C(C)(C)NC(=O)[C@@H](N)Cc1c[nH]cn1)[C@@H](C)O)[C@@H](C)O)C(=O)N[C@@H](CCC(=O)O)C(=O)N[C@@H](CCC(=O)O)C(=O)N[C@@H](CCC(N)=O)C(=O)N[C@@H](CCCNC(=N)N)C(=O)N[C@@H](CCC(N)=O)C(=O)NC(C)(C)C(=O)N[C@@H](CCC(=O)O)C(=O)N[C@@H](Cc1ccccc1)C(=O)N[C@H](C(=O)N[C@@H](CCC(=O)O)C(=O)N[C@@H](Cc1c[nH]c2ccccc12)C(=O)N[C@@H](CC(C)C)C(=O)N[C@@H](CCCCN)C(=O)N[C@@H](C)C(=O)NCC(=O)NCC(=O)N1CCC[C@H]1C(=O)N1CCC[C@H]1C(=O)N[C@@H](CO)C(=O)NC(C)(C)C(=O)N[C@@H](CCCCN)C(=O)N1CCC[C@H]1C(=O)N1CCC[C@H]1C(=O)N1CCC[C@H]1C(=O)N[C@@H](CCCCN)C(N)=O)[C@@H](C)CC)C(=O)O) [SEQ ID NO: 18],2,5.3,2.8
H[Aib]HGTFTSDLSKLK([γGlu-Stearoyl])EEQRQ[Aib]EFIEWLKAGGPPS[Aib]KPPPK-NH2 (N-terminus assumed; SMILES CCCCCCCCCCCCCCCCCC(=O)N[C@@H](CCC(=O)NCCCC[C@H](NC(=O)[C@H](CC(C)C)NC(=O)[C@H](CCCCN)NC(=O)[C@H](CO)NC(=O)[C@H](CC(C)C)NC(=O)[C@H](CC(=O)O)NC(=O)[C@H](CO)NC(=O)[C@@H](NC(=O)[C@H](Cc1ccccc1)NC(=O)[C@@H](NC(=O)CNC(=O)[C@H](Cc1c[nH]cn1)NC(=O)C(C)(C)NC(=O)[C@@H](N)Cc1c[nH]cn1)[C@@H](C)O)[C@@H](C)O)C(=O)N[C@@H](CCC(=O)O)C(=O)N[C@@H](CCC(=O)O)C(=O)N[C@@H](CCC(N)=O)C(=O)N[C@@H](CCCNC(=N)N)C(=O)N[C@@H](CCC(N)=O)C(=O)NC(C)(C)C(=O)N[C@@H](CCC(=O)O)C(=O)N[C@@H](Cc1ccccc1)C(=O)N[C@H](C(=O)N[C@@H](CCC(=O)O)C(=O)N[C@@H](Cc1c[nH]c2ccccc12)C(=O)N[C@@H](CC(C)C)C(=O)N[C@@H](CCCCN)C(=O)N[C@@H](C)C(=O)NCC(=O)NCC(=O)N1CCC[C@H]1C(=O)N1CCC[C@H]1C(=O)N[C@@H](CO)C(=O)NC(C)(C)C(=O)N[C@@H](CCCCN)C(=O)N1CCC[C@H]1C(=O)N1CCC[C@H]1C(=O)N1CCC[C@H]1C(=O)N[C@@H](CCCCN)C(N)=O)[C@@H](C)CC)C(=O)O) [SEQ ID NO: 19],4,6.1,3.1
H[Aib]HGTFTSDLSKLK([γGlu-Palmitoyl])EEQRQ[Aib]EFIEWLKA[dA]GPPS[Aib]KPPPK-NH2 (N-terminus assumed; SMILES CCCCCCCCCCCCCCCC(=O)N[C@@H](CCC(=O)NCCCC[C@H](NC(=O)[C@H](CC(C)C)NC(=O)[C@H](CCCCN)NC(=O)[C@H](CO)NC(=O)[C@H](CC(C)C)NC(=O)[C@H](CC(=O)O)NC(=O)[C@H](CO)NC(=O)[C@@H](NC(=O)[C@H](Cc1ccccc1)NC(=O)[C@@H](NC(=O)CNC(=O)[C@H](Cc1c[nH]cn1)NC(=O)C(C)(C)NC(=O)[C@@H](N)Cc1c[nH]cn1)[C@@H](C)O)[C@@H](C)O)C(=O)N[C@@H](CCC(=O)O)C(=O)N[C@@H](CCC(=O)O)C(=O)N[C@@H](CCC(N)=O)C(=O)N[C@@H](CCCNC(=N)N)C(=O)N[C@@H](CCC(N)=O)C(=O)NC(C)(C)C(=O)N[C@@H](CCC(=O)O)C(=O)N[C@@H](Cc1ccccc1)C(=O)N[C@H](C(=O)N[C@@H](CCC(=O)O)C(=O)N[C@@H](Cc1c[nH]c2ccccc12)C(=O)N[C@@H](CC(C)C)C(=O)N[C@@H](CCCCN)C(=O)N[C@@H](C)C(=O)N[C@H](C)C(=O)NCC(=O)N1CCC[C@H]1C(=O)N1CCC[C@H]1C(=O)N[C@@H](CO)C(=O)NC(C)(C)C(=O)N[C@@H](CCCCN)C(=O)N1CCC[C@H]1C(=O)N1CCC[C@H]1C(=O)N1CCC[C@H]1C(=O)N[C@@H](CCCCN)C(N)=O)[C@@H](C)CC)C(=O)O) [SEQ ID NO: 16],3.7,7.1,4.3
H[Aib]HGTFTSDLSKLK([γGlu-γGlu-AEEA-Palmitoyl])EEQRQKEFIEWLKA[dA]GHPS[Aib]KPPPK-NH2 (N-terminus assumed; SMILES CCCCCCCCCCCCCCCC(=O)NCCOCCOCC(=O)N[C@@H](CCC(=O)N[C@@H](CCC(=O)NCCCC[C@H](NC(=O)[C@H](CC(C)C)NC(=O)[C@H](CCCCN)NC(=O)[C@H](CO)NC(=O)[C@H](CC(C)C)NC(=O)[C@H](CC(=O)O)NC(=O)[C@H](CO)NC(=O)[C@@H](NC(=O)[C@H](Cc1ccccc1)NC(=O)[C@@H](NC(=O)CNC(=O)[C@H](Cc1c[nH]cn1)NC(=O)C(C)(C)NC(=O)[C@@H](N)Cc1c[nH]cn1)[C@@H](C)O)[C@@H](C)O)C(=O)N[C@@H](CCC(=O)O)C(=O)N[C@@H](CCC(=O)O)C(=O)N[C@@H](CCC(N)=O)C(=O)N[C@@H](CCCNC(=N)N)C(=O)N[C@@H](CCC(N)=O)C(=O)N[C@@H](CCCCN)C(=O)N[C@@H](CCC(=O)O)C(=O)N[C@@H](Cc1ccccc1)C(=O)N[C@H](C(=O)N[C@@H](CCC(=O)O)C(=O)N[C@@H](Cc1c[nH]c2ccccc12)C(=O)N[C@@H](CC(C)C)C(=O)N[C@@H](CCCCN)C(=O)N[C@@H](C)C(=O)N[C@H](C)C(=O)NCC(=O)N[C@@H](Cc1c[nH]cn1)C(=O)N1CCC[C@H]1C(=O)N[C@@H](CO)C(=O)NC(C)(C)C(=O)N[C@@H](CCCCN)C(=O)N1CCC[C@H]1C(=O)N1CCC[C@H]1C(=O)N1CCC[C@H]1C(=O)N[C@@H](CCCCN)C(N)=O)[C@@H](C)CC)C(=O)O)C(=O)O) [SEQ ID NO: 15],1.8,1.1,4.5
H[Aib]HGTFTSDLSKLK([γGlu-γGlu-AEEA-Palmitoyl])EEQRQKEFIEWLKAGGHPS[Aib]KPPPK-NH2 (N-terminus assumed; SMILES CCCCCCCCCCCCCCCC(=O)NCCOCCOCC(=O)N[C@@H](CCC(=O)N[C@@H](CCC(=O)NCCCC[C@H](NC(=O)[C@H](CC(C)C)NC(=O)[C@H](CCCCN)NC(=O)[C@H](CO)NC(=O)[C@H](CC(C)C)NC(=O)[C@H](CC(=O)O)NC(=O)[C@H](CO)NC(=O)[C@@H](NC(=O)[C@H](Cc1ccccc1)NC(=O)[C@@H](NC(=O)CNC(=O)[C@H](Cc1c[nH]cn1)NC(=O)C(C)(C)NC(=O)[C@@H](N)Cc1c[nH]cn1)[C@@H](C)O)[C@@H](C)O)C(=O)N[C@@H](CCC(=O)O)C(=O)N[C@@H](CCC(=O)O)C(=O)N[C@@H](CCC(N)=O)C(=O)N[C@@H](CCCNC(=N)N)C(=O)N[C@@H](CCC(N)=O)C(=O)N[C@@H](CCCCN)C(=O)N[C@@H](CCC(=O)O)C(=O)N[C@@H](Cc1ccccc1)C(=O)N[C@H](C(=O)N[C@@H](CCC(=O)O)C(=O)N[C@@H](Cc1c[nH]c2ccccc12)C(=O)N[C@@H](CC(C)C)C(=O)N[C@@H](CCCCN)C(=O)N[C@@H](C)C(=O)NCC(=O)NCC(=O)N[C@@H](Cc1c[nH]cn1)C(=O)N1CCC[C@H]1C(=O)N[C@@H](CO)C(=O)NC(C)(C)C(=O)N[C@@H](CCCCN)C(=O)N1CCC[C@H]1C(=O)N1CCC[C@H]1C(=O)N1CCC[C@H]1C(=O)N[C@@H](CCCCN)C(N)=O)[C@@H](C)CC)C(=O)O)C(=O)O) [SEQ ID NO: 14],1.2,0.9,3.4
H[Aib]HGTFTSDLSKLK([γGlu-Stearoyl])EEQRQ[Aib]EFIEWLKA[dA]GPPS[Aib]KPPPK-NH2 (N-terminus assumed; SMILES CCCCCCCCCCCCCCCCCC(=O)N[C@@H](CCC(=O)NCCCC[C@H](NC(=O)[C@H](CC(C)C)NC(=O)[C@H](CCCCN)NC(=O)[C@H](CO)NC(=O)[C@H](CC(C)C)NC(=O)[C@H](CC(=O)O)NC(=O)[C@H](CO)NC(=O)[C@@H](NC(=O)[C@H](Cc1ccccc1)NC(=O)[C@@H](NC(=O)CNC(=O)[C@H](Cc1c[nH]cn1)NC(=O)C(C)(C)NC(=O)[C@@H](N)Cc1c[nH]cn1)[C@@H](C)O)[C@@H](C)O)C(=O)N[C@@H](CCC(=O)O)C(=O)N[C@@H](CCC(=O)O)C(=O)N[C@@H](CCC(N)=O)C(=O)N[C@@H](CCCNC(=N)N)C(=O)N[C@@H](CCC(N)=O)C(=O)NC(C)(C)C(=O)N[C@@H](CCC(=O)O)C(=O)N[C@@H](Cc1ccccc1)C(=O)N[C@H](C(=O)N[C@@H](CCC(=O)O)C(=O)N[C@@H](Cc1c[nH]c2ccccc12)C(=O)N[C@@H](CC(C)C)C(=O)N[C@@H](CCCCN)C(=O)N[C@@H](C)C(=O)N[C@H](C)C(=O)NCC(=O)N1CCC[C@H]1C(=O)N1CCC[C@H]1C(=O)N[C@@H](CO)C(=O)NC(C)(C)C(=O)N[C@@H](CCCCN)C(=O)N1CCC[C@H]1C(=O)N1CCC[C@H]1C(=O)N1CCC[C@H]1C(=O)N[C@@H](CCCCN)C(N)=O)[C@@H](C)CC)C(=O)O) [SEQ ID NO: 17],7.3,6.4,5.3
